Data as given in the supplement of paper PMC11246515.
± gives the standard deviation of the averaged measurements.

Experiment: total protein half-life in vivo (active degradation + dilution); higher = more stable protein
[1] = E. coli NCM3722 delta-clpP delta-lon delta-hslV, growth: N-lim chemostat, doubling time 6 h
[2] = E. coli NCM3722 delta-clpP, growth: N-lim chemostat, doubling time 6 h
[3] = E. coli NCM3722 delta-hslV, growth: N-lim chemostat, doubling time 6 h
[4] = E. coli NCM3722 delta-lon, growth: N-lim chemostat, doubling time 6 h
[5] = E. coli NCM3722 delta-smpB, growth: N-lim chemostat, doubling time 6 h
[6] = wild type E. coli NCM3722, growth: C-lim chemostat, doubling time 3 h
[7] = wild type E. coli NCM3722, growth: C-lim chemostat, doubling time 6 h
[8] = wild type E. coli NCM3722, growth: C-lim chemostat, doubling time 12 h
[9] = wild type E. coli NCM3722, growth: N-lim chemostat, doubling time 6 h
[10] = wild type E. coli NCM3722, growth: N-lim chemostat, doubling time 12 h
[11] = wild type E. coli NCM3722, growth: P-lim chemostat, doubling time 6 h
[12] = wild type E. coli NCM3722, growth: P-lim chemostat, doubling time 12 h

| Sequence | total protein half-life in vivo [1] | total protein half-life in vivo [2] | total protein half-life in vivo [3] | total protein half-life in vivo [4] | total protein half-life in vivo [5] | total protein half-life in vivo [6] | total protein half-life in vivo [7] | total protein half-life in vivo [8] | total protein half-life in vivo [9] | total protein half-life in vivo [10] | total protein half-life in vivo [11] | total protein half-life in vivo [12] |
| --- | --- | --- | --- | --- | --- | --- | --- | --- | --- | --- | --- | --- |
| MKRNAKTIIAGMIALAISHTAMADDIKVAVVGAMSGPIAQWGDMEFNGARQAIKDINAKGGIKGDKLVGVEYDDACDPKQAVAVANKIVNDGIKYVIGHLCSSSTQPASDIYEDEGILMISPGATNPELTQRGYQHIMRTAGLDSSQGPTAAKYILETVKPQRIAIIHDKQQYGEGLARSVQDGLKAANANVVFFDGITAGEKDFSALIARLKKENIDFVYYGGYYPEMGQMLRQARSVGLKTQFMGPEGVGNASLSNIAGDAAEGMLVTMPKRYDQDPANQGIVDALKADKKDPSGPYVWITYAAVQSLATALERTGSDEPLALVKDLKANGANTVIGPLNWDEKGDLKGFDFGVFQWHADGSSTAAK | 5.85 ± 0.11 h | 6.16 ± 0.79 h | 6.48 ± 0.55 h | 5.84 ± 0.097 h | 6.01 ± 0.47 h | 3.077 ± 0.0084 h | 6.134 ± 0.039 h | 11.9 ± 0.26 h | 5.87 ± 0.27 h | 12.2 ± 0.64 h | 5.65 ± 0.13 h | 14.3 ± 1.1 h |
| MQRARCYLIGETAVVLELEPPVTLASQKRIWRLAQRLVDMPNVVEAIPGMNNITVILRNPESLALDAIERLQRWWEESEALEPESRFIEIPVVYGGAGGPDLAVVAAHCGLSEKQVVELHSSVEYVVWFLGFQPGFPYLGSLPEQLHTPRRAEPRLLVPAGSVGIGGPQTGVYPLATPGGWQLIGHTSLSLFDPARDEPILLRPGDSVRFVPQKEGVC [P0AAV4] | 5.48 ± 0.23 h | 5.44 ± 0.087 h | 5.73 ± 0.79 h | 7.2 ± 0.64 h | 4.972 ± 0.042 h | 3.51 ± 0.27 h | 6.26 ± 0.1 h | 11.3 ± 0.43 h | 5.41 ± 0.97 h | 11.3 ± 0.39 h | 6.04 ± 0.51 h | – |
| MYYGFDIGGTKIALGVFDSGRQLQWEKRVPTPRDSYDAFLDAVCELVAEADQRFGCKGSVGIGIPGMPETEDGTLYAANVPAASGKPLRADLSARLDRDVRLDNDANCFALSEAWDDEFTQYPLVMGLILGTGVGGGLIFNGKPITGKSYITGEFGHMRLPVDALTMMGLDFPLRRCGCGQHGCIENYLSGRGFAWLYQHYYHQPLQAPEIIALYDQGDEQARAHVERYLDLLAVCLGNILTIVDPDLVVIGGGLSNFPAITTQLADRLPRHLLPVARVPRIERARHGDAGGMRGAAFLHLTD | 4.42 ± 0.85 h | – | 3.76 ± 0.45 h | 4.37 ± 0.18 h | 4.06 ± 0.31 h | 2.86 ± 0.4 h | 4.98 ± 0.17 h | 9.97 ± 0.28 h | 3.9761 ± 0.0021 h | 6.67 ± 1.1 h | 6.09 ± 0.9 h | 11.7 ± 0.2 h |
| MNAIISPDYYYVLTVAGQSNAMAYGEGLPLPDREDAPHPRIKQLARFAHTHPGGPPCHFNDIIPLTHCPHDVQDMQGYHHPLATNHQTQYGTVGQALHIARKLLPFIPDNAGILIVPCCRGGSAFTAGSEGTYSERHGASHDACRWGTDTPLYQDLVSRTRAALAKNPQNKFLGACWMQGEFDLMTSDYASHPQHFNHMVEAFRRDLKQYHSQLNNITDAPWFCGDTTWYWKENFPHSYEAIYGNYQNNVLANIIFVDFQQQGERGLTNAPDEDPDDLSTGYYGSAYRSPENWTTALRSSHFSTAARRGIISDRFVEAILQFWRER | 5.07 ± 0.92 h | 3.59 ± 0.15 h | 3.413 ± 0.026 h | – | 3.46 ± 0.15 h | 3.16 h | – | 8.77 ± 0.83 h | 3.38 h | – | 5.15 ± 0.32 h | 13.2 h |
| MAYRSAPLYEDVIWRTHLQPQDPTLAQAVRATIAKHREHLLEFIRLDEPAPLNAMTLAQWSSPNVLSSLLAVYSDHIYRNQPMMIRENKPLISLWAQWYIGLMVPPLMLALLTQEKALDVSPEHFHAEFHETGRVACFWVDVCEDKNATPHSPQHRMETLISQALVPVVQALEATGEINGKLIWSNTGYLINWYLTEMKQLLGEATVESLRHALFFEKTLTNGEDNPLWRTVVLRDGLLVRRTCCQRYRLPDVQQCGDCTLK | 3.38 ± 1.1 h | – | – | – | – | – | – | – | – | – | – | – |
